Experimental data from paper PMC2992532, “A tryptophan-rich peptide acts as a transcription activation domain” (BMC Molecular Biology, 2010).

Molecular target: T1, LexA-TFIIB fusion protein (UniProt P29055 1-345)
T1 sequence (looked up): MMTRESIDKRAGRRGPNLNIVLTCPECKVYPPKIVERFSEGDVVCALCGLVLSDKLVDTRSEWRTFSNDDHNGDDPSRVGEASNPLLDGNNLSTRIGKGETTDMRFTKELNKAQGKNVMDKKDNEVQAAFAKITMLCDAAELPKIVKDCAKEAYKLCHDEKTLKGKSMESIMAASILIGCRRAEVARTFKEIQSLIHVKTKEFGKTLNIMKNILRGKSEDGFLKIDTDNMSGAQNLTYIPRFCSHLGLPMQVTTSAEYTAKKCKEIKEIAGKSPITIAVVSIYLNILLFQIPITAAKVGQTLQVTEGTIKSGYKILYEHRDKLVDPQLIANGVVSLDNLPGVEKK
Test: cell-based or functional assay

WWWWWWW [B42-W7 fusion protein (heptatryptophan, W7)]
transcriptional activity (beta-gal reporter) of W7 fused to LexA, relative to the native pentapeptide WYDWW fused to LexA: ~3 fold
